Laboratory results as given in patent publication US20250101074A1 (Affibody, published 2025).

How the values were obtained:
Test in all cases: SPR (Biacore), PEP07843 immobilized, analyte protein injected
[1] = target: T1, human IL-17F (human, UniProt Q96PD4 31-163)
T1 construct: R&D Systems cat. no; 1335-IL/CF; also called hIL-17F
T1 sequence: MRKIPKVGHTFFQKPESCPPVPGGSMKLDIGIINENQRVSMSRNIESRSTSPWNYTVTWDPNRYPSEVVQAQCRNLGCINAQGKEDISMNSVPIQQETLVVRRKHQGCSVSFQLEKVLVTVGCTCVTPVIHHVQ
Procedure: (§1) In the binding experiment, HBS-EP was used as running buffer and the flow rate was 30 μl/min. […] The analytes, i.e. the panels of 24 or 12 different proteins, were each diluted in HBS-EP or HBS-EP supplemented with 500 mM NaCl to final concentrations of from 0.4 to 250 nM and injected for 5 min. […] The results were analyzed using the BiaEvaluation software.
(§2) The Z-ABD-Z polypeptides were injected over surfaces containing HSA followed by injection of the analyte proteins.

[2] = target: T2, hIL-17C (human, UniProt Q9P0M4 19-197)
T2 sequence (looked up): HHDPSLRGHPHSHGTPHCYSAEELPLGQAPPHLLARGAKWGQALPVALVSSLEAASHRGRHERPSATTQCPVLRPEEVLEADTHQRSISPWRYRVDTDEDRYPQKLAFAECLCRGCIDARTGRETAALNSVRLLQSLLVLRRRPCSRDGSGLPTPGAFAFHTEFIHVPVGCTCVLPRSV
Procedure: as §1, §2

[3] = target: T3, Human Hemopexin/HPX Protein (human, UniProt P02790 24-462)
T3 sequence (looked up): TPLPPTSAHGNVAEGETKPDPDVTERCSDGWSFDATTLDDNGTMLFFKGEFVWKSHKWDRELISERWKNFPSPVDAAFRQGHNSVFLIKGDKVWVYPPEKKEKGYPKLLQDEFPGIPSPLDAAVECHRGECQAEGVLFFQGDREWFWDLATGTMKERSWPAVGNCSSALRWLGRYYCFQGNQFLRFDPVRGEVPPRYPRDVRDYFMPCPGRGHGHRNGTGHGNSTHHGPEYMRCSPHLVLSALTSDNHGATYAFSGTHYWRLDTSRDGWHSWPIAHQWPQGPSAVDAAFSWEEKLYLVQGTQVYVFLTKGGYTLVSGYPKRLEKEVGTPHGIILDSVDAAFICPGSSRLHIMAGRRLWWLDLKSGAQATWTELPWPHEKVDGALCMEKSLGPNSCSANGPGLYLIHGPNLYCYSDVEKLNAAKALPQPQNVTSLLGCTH
Procedure: as §1, §2

[4] = target: hIL-6 (human, UniProt P05231 29-212)
Procedure: as §1, §2

[5] = target: T4, hIL23 (human, UniProt Q9NPF7 20-189; P29460 23-328)
T4 construct: the two subunits are general knowledge
T4 sequence (looked up) 1: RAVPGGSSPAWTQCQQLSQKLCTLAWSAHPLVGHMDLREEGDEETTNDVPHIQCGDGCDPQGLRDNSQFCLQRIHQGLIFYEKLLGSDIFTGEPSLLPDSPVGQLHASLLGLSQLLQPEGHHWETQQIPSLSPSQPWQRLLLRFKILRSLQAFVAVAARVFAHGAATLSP
T4 sequence (looked up) 2: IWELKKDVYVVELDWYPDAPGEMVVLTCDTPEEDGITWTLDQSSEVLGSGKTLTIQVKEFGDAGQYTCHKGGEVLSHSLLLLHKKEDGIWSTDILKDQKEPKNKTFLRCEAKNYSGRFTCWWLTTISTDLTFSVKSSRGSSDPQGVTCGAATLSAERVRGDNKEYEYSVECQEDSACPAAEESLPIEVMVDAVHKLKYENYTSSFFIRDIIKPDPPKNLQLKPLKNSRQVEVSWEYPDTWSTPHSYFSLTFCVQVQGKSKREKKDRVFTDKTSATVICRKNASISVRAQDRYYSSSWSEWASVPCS
Procedure: as §1, §2

[6] = target: T5, hIL-17E (human, UniProt Q9H293 33-177)
T5 sequence (looked up): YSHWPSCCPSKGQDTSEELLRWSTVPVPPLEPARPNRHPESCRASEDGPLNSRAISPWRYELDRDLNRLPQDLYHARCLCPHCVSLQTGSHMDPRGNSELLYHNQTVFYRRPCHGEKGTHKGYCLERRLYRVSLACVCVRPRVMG
Procedure: as §1, §2

[7] = target: T6, hIL-17D (human, UniProt Q8TAD2 18-202, limits assumed)
T6 sequence (looked up): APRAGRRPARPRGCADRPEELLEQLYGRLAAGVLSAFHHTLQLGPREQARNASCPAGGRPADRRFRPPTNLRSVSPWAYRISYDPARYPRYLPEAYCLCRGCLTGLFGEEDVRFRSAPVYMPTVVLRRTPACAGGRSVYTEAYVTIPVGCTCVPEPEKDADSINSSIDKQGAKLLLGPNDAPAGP
Procedure: as §1, §2

[8] = target: Beta-2-microglobulin/B2M (UniProt P61769 21-119)
Procedure: as §1, §2

[9] = target: T7, IL-17RA (UniProt Q96F46 33-320)
T7 sequence (looked up): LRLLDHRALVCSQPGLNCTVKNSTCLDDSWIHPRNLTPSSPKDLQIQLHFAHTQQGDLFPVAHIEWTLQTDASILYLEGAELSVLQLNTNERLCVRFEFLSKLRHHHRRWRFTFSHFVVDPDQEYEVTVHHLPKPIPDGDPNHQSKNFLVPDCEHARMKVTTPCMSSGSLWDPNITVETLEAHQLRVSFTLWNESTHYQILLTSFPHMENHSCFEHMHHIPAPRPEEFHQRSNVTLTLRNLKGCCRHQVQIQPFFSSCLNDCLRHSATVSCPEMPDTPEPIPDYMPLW
Procedure: as §1, §2

[10] = target: T8, hIL-17B (human, UniProt Q9UHF5 21-180)
T8 sequence (looked up): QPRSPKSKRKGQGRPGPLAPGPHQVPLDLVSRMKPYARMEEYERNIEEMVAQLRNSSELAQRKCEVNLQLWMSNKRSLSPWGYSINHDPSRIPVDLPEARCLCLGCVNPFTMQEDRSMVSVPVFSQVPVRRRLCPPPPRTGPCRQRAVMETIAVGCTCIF
Procedure: as §1, §2

[11] = target: holo-Transferrin (UniProt P02787 20-698)
Procedure: as §1, §2

Measured: binding result

Sequence of Beta-2-microglobulin/B2M (P61769 21-119 limits assumed): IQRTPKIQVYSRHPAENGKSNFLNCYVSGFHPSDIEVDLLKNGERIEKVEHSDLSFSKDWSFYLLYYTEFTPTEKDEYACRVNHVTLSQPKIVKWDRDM
Sequence of holo-Transferrin (P02787 20-698 limits assumed): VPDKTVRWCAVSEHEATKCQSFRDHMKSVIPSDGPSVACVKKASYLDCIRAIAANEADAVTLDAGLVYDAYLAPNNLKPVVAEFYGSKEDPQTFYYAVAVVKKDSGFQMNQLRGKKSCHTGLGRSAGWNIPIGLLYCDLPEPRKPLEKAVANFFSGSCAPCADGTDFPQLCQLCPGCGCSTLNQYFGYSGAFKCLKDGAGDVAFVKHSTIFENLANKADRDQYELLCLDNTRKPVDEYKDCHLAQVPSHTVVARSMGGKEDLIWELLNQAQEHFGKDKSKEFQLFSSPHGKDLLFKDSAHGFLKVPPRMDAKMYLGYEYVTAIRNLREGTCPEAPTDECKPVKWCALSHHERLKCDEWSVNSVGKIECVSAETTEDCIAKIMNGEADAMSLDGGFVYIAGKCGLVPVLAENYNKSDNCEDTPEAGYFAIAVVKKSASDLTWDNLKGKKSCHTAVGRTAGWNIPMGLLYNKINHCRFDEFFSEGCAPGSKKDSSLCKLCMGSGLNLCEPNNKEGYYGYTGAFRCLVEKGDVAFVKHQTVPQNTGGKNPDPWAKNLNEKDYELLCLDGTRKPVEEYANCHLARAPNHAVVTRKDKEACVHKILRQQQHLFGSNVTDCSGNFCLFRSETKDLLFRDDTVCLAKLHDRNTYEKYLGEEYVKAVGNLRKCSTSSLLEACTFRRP

B1: ABD variant PEP07843 (designed binder)
chain: GSSLAEAKEAANAELDSYGVSDFYKRLIDKAKTVEGVEALKDAILAALP
no binding (tested: 50, 250 nM): all assays above
